What all share (assay): purified protein
What all share (type): biochemical, Saccharomyces cerevisiae

Substrate in series [1]: CC=O
The following applies: standardised reaction buffer, 30 °C, co-substrate NADH.

Substrate in series [2]: O=C(CO)COP(=O)(O)O
Particulars: standardised reaction buffer, 30 °C, measured in-house, also reported in Mendes et al. [42].

Substrate in series [3]: C=C(OP(=O)(O)O)C(=O)O
Particulars: standardised reaction buffer, 30 °C, co-substrate ADP.

B1: Adh1p (Saccharomyces cerevisiae S288C) (protein)
chain: SIPETQKGVIFYESHGKLEYKDIPVPKPKANELLINVKYSGVCHTDLHAWHGDWPLPVKLPLVGGHEGAGVVVGMGENVKGWKIGDYAGIKWLNGSCMACEYCELGNESNCPHADLSGYTHDGSFQQYATADAVQAAHIPQGTDLAQVAPILCAGITVYKALKSANLMAGHWVAISGAAGGLGSLAVQYAKAMGYRVLGIDGGEGKEELFRSIGGEVFIDFTKEKDIVGAVLKATDGGAHGVINVSVSEAAIEASTRYVRANGTTVLVGMPAGAKCCSDVFNQVVKSISIVGSYVGNRADTREALDFFARGLVKSPIKVVGLSTLPEIYEKMEKGQIVGRYVVDTSK
notes: tagged full-length ORF, expressed in and purified from S. cerevisiae
B1: in “purified protein [1]”, the Km is recorded as 0.462 (SEM 5.3%) mM and the kcat amounted to 176 s⁻¹.

B2: Tpi1p (Saccharomyces cerevisiae S288C) (protein)
chain: ARTFFVGGNFKLNGSKQSIKEIVERLNTASIPENVEVVICPPATYLDYSVSLVKKPQVTVGAQNAYLKASGAFTGENSVDQIKDVGAKWVILGHSERRSYFHEDDKFIADKTKFALGQGVGVILCIGETLEEKKAGKTLDVVERQLNAVLEEVKDWTNVVVAYEPVWAIGTGLAATPEDAQDIHASIRKFLASKLGDKAASELRILYGGSANGSNAVTFKDKADVDGFLVGGASLKPEFVDIINSRN
notes: as for B1
As for B2, the Km in “purified protein [2]” was 6.45 (SEM 5%) mM.

B3: Cdc19p (Saccharomyces cerevisiae S288C) (protein)
chain: SRLERLTSLNVVAGSDLRRTSIIGTIGPKTNNPETLVALRKAGLNIVRMNFSHGSYEYHKSVIDNARKSEELYPGRPLAIALDTKGPEIRTGTTTNDVDYPIPPNHEMIFTTDDKYAKACDDKIMYVDYKNITKVISAGRIIYVDDGVLSFQVLEVVDDKTLKVKALNAGKICSHKGVNLPGTDVDLPALSEKDKEDLRFGVKNGVHMVFASFIRTANDVLTIREVLGEQGKDVKIIVKIENQQGVNNFDEILKVTDGVMVARGDLGIEIPAPEVLAVQKKLIAKSNLAGKPVICATQMLESMTYNPRPTRAEVSDVGNAILDGADCVMLSGETAKGNYPINAVTTMAETAVIAEQAIAYLPNYDDMRNCTPKPTSTTETVAASAVAAVFEQKAKAIIVLSTSGTTPRLVSKYRPNCPIILVTRCPRAARFSHLYRGVFPFVFEKEPVSDWTDDVEARINFGIEKAKEFGILKKGDTYVSIQGFKAGAGHSNTLQVSTV
notes: as for B1
Consider B3, for which, in “purified protein [3]”, the Km was 0.281 (SEM 12%) mM and the kcat amounted to 20.1 s⁻¹.

Broadly, the kcat is the maximal rate divided by the concentration of active sites.

Values taken from article PMC3764422, “A model of yeast glycolysis based on a consistent kinetic characterisation of all its enzymes” (Febs Letters, 2013).
